The data set is described as follows: soluble on expression in E. coli; label from the status in PepcDB or PDB records.
Take “MSLIPIVASSPSPLISGDGDDALTATAVALATTAVHAADDLKIALIYGKTGPLEAYAKQTETGLMMGLEYATKGTMTLDGRKIVVITKDDQSKPDLSKAALAEAYQDDGADIAIGTSSSAAALADLPVAEENKKILIVEPAVADQITGEKWNRYIFRTGRNSSQDAISNAVAIGKQGVTIATLAQDYAFGRDGVAAFKEALAKTGATLATEEYVPTTTTDFTAVGQRLFDALKDKPGKKIIWVIWAGGGDPLTKLQDMDPKRYGIELSTGGNILPALAAYKRLPGMEGATYYYYDIPKNPINEWLVTEHQKRFNAPPDFFTAGGFSAAMAVVTAVQKAKSTDTEKLIAAMEGMEFDTPKGKMVFRKEDHQALQSMYHFKVKVDPAVAWAVLEPVRELKIEEMNIPIKNKGIITITTDPNSSSVDKLAAALEHHHHHH”: the “soluble on expression in E. coli” value is on record as “soluble”. With “MSKRKVAIIGSGNIGTDLMIKILRHGQHLEMAVMVGIDPQSDGLARARRMGVATTHEGVIGLMNMPEFADIDIVFDATSAGAHVKNDAALREAKPDIRLIDLTPAAIGPYCVPVVNLEANVDQLNVNMVTCGGQATIPMVAAVSRVARVHYAEIIASIASKSAGPGTRANIDEFTETTSRAIEVVGGAAKGKAIIVLNPAEPPLMMRDTVYVLSDEASQDDIEASINEMAEAVQAYVPGYRLKQRVQFEVIPQDKPVNLPGVGQFSGLKTAVWLEVEGAAHYLPAYAGNLDIMTSSALATAEKMAQSLARKAGEAA”, the “soluble on expression in E. coli” value is on record as “soluble”. In the case of “MSLKIAIVNDMPMAVEALRRALAFDPSHEVVWVATNGAEAVKYCAELTPDLILMDLIMPVMDGVEATRRIMAESPCAIVIVTVDRQQNVHRVFEAMGHGALDVVDTPALGAGNAQEAAAPLLRKILNIGWLIGQEGHHHHHH” it was “not soluble”; in that of “SNAMDLQLSKRLQKVANYVPKGARLLDVGSDHAYLPIFLLQMGYCDFAIAGEVVNGPYQSALKNVSEHGLTSKIDVRLANGLSAFEEADNIDTITICGMGGRLIADILNNDIDKLQHVKTLVLQPNNREDDLRKWLAANDFEIVAEDILTENDKRYEILVVKHGHMNLTAKELRFGPFLLSNNTTVFKEKWQNELNKLTFALNSIPNSKMEERAILEDKIQDIKEVLDES”, “soluble”. In the case of “MHPRSKLSQAQRELAVDLFEEGYGSRAVANRLGVRREQVRHLEDRFRLHGRLCLVSKPTKKQYSFDTKMEILRRYRTGELKSDLAKEYGLSSPNLISHWVWQVNKGGSDALQPKPKGRPKGSGQSVPMTEEDTLRRENELLKAEVAYLKKLRDLREQRRG” it was “not soluble”; in that of “MRWWLCILVLLLAVPAQALLMPGTRVVEEHHANPFEIDVSSIDNLGDIPVDDPSDGINWSFLYLPYPNCTSGTGDATFIAVSRGSSNNILIYLEGGGACSDFYTCGMGQYVDHASCNATPTATVTTLNPNPWVVSYHYRYGIFDRANPDNPFRDWTIVFVPYSTGDVHWGNRVVKYCYYNPYNLSQVDCSINFTVHHVGFVNAITAIRWAAEQGDFDKVVIAGSSAGGYGTIVHSFYAREIFGKPILAIDDAGPGLNVNQSNFTIQMLFGIETLNETWGAYDNLPDDAQDFLGDRDPIFFVDYFLDHYPDSRFALYEDQMDYTIGVFFNGYTEEQFRDLLLNKACEIKAMHRHNFFRYLPLGTEHTILAYPWFYEKNIHNYRVYEWVWDLIKGKKRDAVELDGVRGIYLACPPGIFAKLEHHHHHH”, “not soluble”; in that of “MGSDKIHHHHHHMTTDLEQQFEFLTEIERLREVERQNLLLDGSRVENSAEHSWHLALYALVFAPYAPSDVSITRVIEMLLLHDIVEIDVGDHPIDEPTDWEAVAQAEDRAQRRIFGLLPEAQGHRLQALWQEFEAAHTADARFAKSLDYCQPIFQTLCAVSPPADHLRVVRENLTTGRATSLRERFPEAYAAACSLIDGQTVSDPDFAARLAFLSEADRLKSVLRASRIASGTRYENSAEHSWHIMLYGWILAPHSLSEVDVSRVLKMLLLHDLVEIDAGDVPIHSNLDAAALRQIEETEKAAAERIFGLLPDAQAKDCLMIWQEFEAAQSADAVFAKSIDRVQPVLLNIATGGGSWVAYDVTLPQLETRVGVKIARGAPKVWDHVRALLLPWFTAQGRL”, “not soluble”. In the case of “MTVAVIGAHGGIGRRLLPRLNEAGHDPIGVVRSEDQFAAIRDRGAEPRLGDLEGEVASALDGADAVVFTAGAGGSTGWDKTILVDLWGAERAVHACEEKEIDRFVMVSSRGAGDPESRQGPIKPYIVAKHVADRTLQRSSLDETILRPTRLTDAEGTGRVAAYVDTDPDAGDPIPRADVAQAVVQCLADDNTVGHAITLYGGDTPIGEALRPSGLEHHHHHH” it was “not soluble”; in that of “ISLKYTAARLHEKGVLLEIEDLQVNQFKNVIFEISPTEEVGDFEVKAKFMGVQMETFMLHYQDLLQLQYEGVAVMKLFDRAKVNVNLLIFLLNKKFYGK”, “soluble”.

As for “MIYDFTTKISRKNLGSLKWDLMYSQNPEVGNEVVPLSVADMEFKNPPELIEGLKKYLDETVLGYTGPTEEYKKTVKKWMKDRHQWDIQTDWIINTAGVVPAVFNAVREFTKPGDGVIIITPVYYPFFMAIKNQERKIIECELLEKDGYYTIDFQKLEKLSKDKNNKALLFCSPHNPVGRVWKKDELQKIKDIVLKSDLMLWSDEIHFDLIMPGYEHTVFQSIDEQLADKTITFTAPSKTFNIAGMGMSNIIIKNPDIRERFTKSRDATSGMPFTTLGYKACEICYKECGKWLDGCIKVIDKNQRIVKDFFEVNHPEIKAPLIEGTYLQWIDFRALKMDHKAMEEFMIHKAQIFFDEGYIFGDGGIGFERINLAAPSSVIQESLERLNKALKDLKNRHLK”, the “soluble on expression in E. coli” value was “soluble”.

Consider “MDEHFIKIHKWLYPVSWIYGAVVTVRNKLFDWGFLRSKSFGVPVICIGNLSVGGTGKTPHTEYLIKLLRDNYHVAVLSRGYKRHSRGYVLATPQSTARSIGDEPYQMHTKFPSVTLAVDENRCHGIEQLLSIKEPSIEVVLLDDAFQHRYVKPGLSILLTDYHRLFCDDTLLPAGRLRESVNGKNRAQIVIVTKCPQDIKPIDYNIITKRLNLYPYQQLYFSSFRYGNLQPVFPSANSEIDSTVNELPLSALTNTDILLVTGIASPAPILEELKMYTDQIDSLSFDDHHHFSHRDIQQIKERFGKLKGEHKLIVTTEKDATRLIHHPVLSEELKPFIYALPIEIEILQNQQDKFNQHIIGYVRENTRNSSFSERENAHQSLEHHHHHH”, for which the “soluble on expression in E. coli” value is on record as “soluble”. In the case of “MAHHHHHHMIMKKLIENNVIKLNYENFLTKYKLNSGNEQKDLSDEELYEHFIINTFNYSKPLGCLPPNISNIKEYYLDGINIFEVINYVNISERMYKFENITEEDDKENEDDSKEIFSHSEPDEKHDCEIKSRKNNKNSKISNNNKKDGNNIKSNKYRRFYRFLLYDGKSFIYAYEQEYNEIFTYLESNKYIYPKIILYNKPLIRRGAILLKKNQVIILFKGCIVSGNDTEDNEIEDFPIISESNNINSGVHQNIHDDLYTTRNTYDNKNMTDDSHNLIRKFYYADKGMEKEEYKTYYENTNNCGVLSNTNRSNEYYSRSSMHNNNNYSFNEYAKHNYKYDQNHVKKNIEYYYNKDKNCYITSIDYNNNNNNNNNSINNSNNEYTGNNYNNNNKGNHYYYHNIHNNHMHDTHNSKNYIGSNRYNTDKASYNYYNNHYKNKQHYIDPQRNNYYTHGINHDDYSKENYLNAFEYKNHNSYKEPLRNYSNDHPRNSYNKNKYNIFNENKRNSSSKNNRNSSSKNNRNSSNKNNRNSSKEYFKRNSNKFDNAYDNTYHDNNTRINHHSDFSRKNNDGFYRNNDNNYNNETYVKNHFSNEAKYNAGYQRLSDNLENRNRMNCENNNNYYSTYGHSDYNVNYNNKNNRNIPLSNLNEKNNHIPSNNYYTENYLPEKEGNRNILTNQINNYSINSVNNNFEQINPSTCNYNKNNVFPYNKEDDKNKFVEMKNVEEEYHNDNQERARKNSENSKKLIDLTEGFFSSEFFHKSYECNDVNKNSDIIILDD” it was “soluble”. With “MGSDKIHHHHHHMEIQNLKFEDRDEFKRKSIAAKVISVLQADIDISPMVIDGSWGTGKTEFCHKLINLMHVSDTHHLIYVDAFKADHADEPLMTVLAEVIKVLPDDDSKQSFMKKALPAVRYGLKTIAKAGVSHLLRQDIADVADDFDKQIQGAADKAIDATVESVLKDHVKADKNLKALQVALADIAAIKPIVLFIDELDRCRPNFAVDMLEIIKHTFDVDGVKFVLITNTQQLKASINHCYGLSVDAQRYLDKFVKFTIALPETVDTNAHRESIAAIEHYKNLVRSSHVLVDMKLYECGSIRTIEQIIIANRLSLREVETVVRHIEIYVTLAQSNNLQSNTIFGYKVLTILAIAIYSIQPEVALSILQKKLDAKDIGNCLGISSLSNNIQGRPDEQELICYMLGYTALHNKEHFTPTEDVDVWKQESAQYFRGAHWRTDDFASICAEAIQTLTMC”, the “soluble on expression in E. coli” value is given as “not soluble”.

“MDGAGAEEVLAPLRLAVRQQGDLVRKLKEDKAPQVDVDKAVAELKARKRVLEAKELALQPKDDIVDRAKMEDTLKRRFFYDQAFAIYGGVSGLYDFGPVGCALKNNIIQTWRQHFIQEEQILEIDCTMLTPEPVLKTSGHVDKFADFMVKDVKNGECFRADHLLKAHLQKLMSDKKCSVEKKSEMESVLAQLDNYGQQELADLFVNYNVKSPITGNDLSPPVSFNLMFKTFIGPGGNMPGYLRPETAQGIFLNFKRLLEFNQGKLPFAAAQIGNSFRNEISPRSGLIRVREFTMAEIEHFVDPSEKDHPKFQNVADLHLYLYSAKAQVSGQSARKMRLGDAVEQGVINNTVLGYFIGRIYLYLTKVGISPDKLRFRQHMENEMAHYACDCWDAESKTSYGWIEIVGCADRSCYDLSCHARATKVPLVAEKPLKEPKTVNVVQFEPSKGAIGKAYKKDAKLVMEYLAICDECYITEMEMLLNEKGEFTIETEGKTFQLTKDMINVKRFQKTLYVEEVVPNVIEPSFGLGRIMYTVFEHTFHVREGDEQRTFFSFPAVVAPFKCSVLPLSQNQEFMPFVKELSEALTRHGVSHKVDDSSGSIGRRYARTDEIGVAFGVTIDFDTVNKTPHTATLRDRDSMRQIRAEISELPSIVQDLANGNITWADVEARYPLFEGQETGKKETIEELEHHHHHH”: the “soluble on expression in E. coli” value was “soluble”. In the case of “MNVAKNRKEKIAGLFLMCPGSGLDMNFVNTIQPGALQYLMKKGSINYPASKNGYPALLTVECLEEFLNTDISKTSPKVIDIQCPVLTVHGIEDNIVPVENSKKLMQRMASTYKDFHRIPGVDHNFDLDEEVLKRLGQLMDVIRENESKKLKAKI” it was “not soluble”; in that of “GAMEATEIISTLSNGLIASHYGVSFFTIQSFVSSLSNTSTLKNMLYVLSTAVEFESVPLRKGDRALLVKLSKRLPLRFPEHTSSGSVSFKVFLLLQAYFSRLELPVDFQNDLKDILEKVVPLINVVVDILSANGYLNATTAMDLAQMLIQGVWDVDNPLRQIPHFNNKILEKCKEINVETVYDIMALEDEERDEILTLTDSQLAQVAAFVNNYPNVELTYSLNNSDSLISGVKQKITIQLTRDVEPENLQVTSEKYPFDKLESWWLVLGEVSKKELYAIKKVTLNKETQQYELEFDTPTSGKHNLTIWCVCDSYLDADKELSFEINVK”, “soluble”. In the case of “MQKAVVMDEQAIRRALTRIAHEIIERNKGIDGCVLVGIKTRGIYLARRLAERIEQIEGASVPVGELDITLYRDDLTVKTDDHEPLVKGTNVPFPVTERNVILVDDVLFTGRTVRAAMDAVMDLGRPARIQLAVLVDRGHRELPIRADFVGKNVPTSRSELIVVELSEVDGIDQVSIHEK” it was “soluble”.
